Legend:
[1] = biological target: N-terminal region of Cul3 (Cul3a residues 1-379) (zebrafish, UniProt F6NVK8 1-379); assay: MST
[2] = biological target: Cul3 NTD lacking the first 18 amino acids (zebrafish, UniProt F6NVK8 19-379); assay: MST

B1: BTB-BACK fragment of Btbd6 (Btbd6a residues 119-361) (domain or fragment)
chain: SAHPTLRERNALMFNNEQMADVHFIVGPPGESQRVPAHKYVLAVGSSVFCAMFYGDLAEGDSDIHIPDVEPAAFLILLKYMYSDEIELAPDTVLATLYAAKKYLVSALARACVGFLETSLEARNACVLLSQSRLFEEPELTQRCWEVIDAQAELALRSEGFSEIDLPTLESILHRETLNVKESVVFQAVLGWADAECRRQGLSPTSQNQRSVLGKALHLVRLPSMTLQEFADGAAQVDILTLE
modifications: NT-647 amine-reactive dye (RED-NHS kit) where used as the labelled partner in MST
- Kd [1]: 0.012 µM

B2: BTB domain of Plzf (Plzfa residues 8-126) (domain or fragment)
chain: MIQLQNPNHPNALLHKANQMRLAGTLCDVVIMVDSQEFHAHRTVLACTSKMFEILFHRNSQHYTLDFLSPKTFQQILEYAYTATLQAKVEDLDDLLYAAEILEIEYLEEQCLKILETIQ
modifications: NT-647 amine-reactive dye (RED-NHS kit) where used as the labelled partner in MST
- Kd [2]: ≥ 20 µM
- Kd [1]: 2.9 µM

Reference: publication doi:10.1101/575910 (bioRxiv, 2019)
